Results as given in US20040033228A1.

Molecular target: TNF (UniProt P01375)
Assay: cell-based or functional assay

Sequence of UniProt P01375 (P01375 77-233 limits assumed): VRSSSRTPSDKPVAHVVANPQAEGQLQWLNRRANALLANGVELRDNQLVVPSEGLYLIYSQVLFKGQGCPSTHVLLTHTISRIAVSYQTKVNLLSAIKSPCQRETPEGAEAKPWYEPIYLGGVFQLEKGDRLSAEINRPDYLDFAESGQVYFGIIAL

Which results are given for D2E7 antibody?
In vitro TNF neutralization test; with 0.1% polysorbate 80; fast thaw -80° C. in water bath: 95.8; In vitro TNF neutralization test; with 0.1% polysorbate 80; no freeze/thaw: 112; In vitro TNF neutralization test; with 0.1% polysorbate 80; slow thaw -30° C. in refrigerator: 96.2; In vitro TNF neutralization test; with 0.1% polysorbate 80; slow thaw -80° in refrigerator: 96.7; In vitro TNF neutralization test; without 0.1% polysorbate 80; fast thaw -30° C. in water bath: 118; In vitro TNF neutralization test; without 0.1% polysorbate 80; fast thaw -80° C. in water bath: 120; In vitro TNF neutralization test; without 0.1% polysorbate 80; no freeze/thaw: 118; In vitro TNF neutralization test; without 0.1% polysorbate 80; slow thaw -30° C. in refrigerator: 124; In vitro TNF neutralization test; without 0.1% polysorbate 80; slow thaw -80° in refrigerator: 103
